The numbers were not newly measured in publication PMC6425487, which cites them from elsewhere.

One may read the pKa as the negative logarithm of the acid dissociation constant.

In the data set the target is Cterm (position 6, KEKGLF-----). Put plainly: NMR. Conditions: 150 mM; free peptide in solution.

B1: C-terminal hexapeptide of HP36 (Ac-KEKGLF) (synthetic peptide derived from Gallus gallus villin headpiece (organism inferred)) (peptide)
chain: KEKGLF
On to B1, for which the pKa is 3.2.
